Reference: the supplement of paper PMC9170038

Tested on: MS2 coat protein
Experiment: apparent KD of MS2 coat protein; designed switch direction (-1 OFF switch, 1 ON switch): -1; higher = weaker reporter binding
Method in brief: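 Each step of the titration lasted 0.8–1.5 h at the lowest concentration and 10–20 min at the highest. The protein, SNAP-549-labelled MS2 coat protein, went from 0.7 or 1.5 nM doubling to 3 µM over RNA switches transcribed on Illumina chips by stalled E. coli RNA polymerase. Normalised cluster fluorescence was curve-fitted, and the per-design median over clusters is given as apparent KD.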

[1] = Eterna round: R95, input ligand: microRNA oligo, concentration not stated
[2] = Eterna round: R95, input ligand: FMN 200 uM
[3] = Eterna round: R95, input ligand: none
[4] = input ligand: microRNA oligo, concentration not stated

Sequence: CAGCUGAAUGUGAGGAUAUUACGAGCCUCGGCUCGUGAGAAGGCACAUGAGGAUCACCCAUGUCUCAACAGCUG [BmEx4/2-B2] (Eterna round: R97, puzzle: Brourd's mod of Exclusion 4)
- apparent KD of MS2 coat protein (input ligand: FMN 200 uM): 0.759 µM
- apparent KD of MS2 coat protein (input ligand: none): 0.0362 µM

Sequence: CAGGUGUUAGGAUAUCGGAGAUUGAGGCAGACGGGAAUAUUCGAGAAGGAACAUGAGGAUCACCCAUGUAGUAG [JR_Exclu4_Sub036] (puzzle: Exclusion 4)
- apparent KD of MS2 coat protein [1]: 0.0239 µM

Sequence: CAGGUUAGAGGAUAUACGUAGGUACAGAUCUGUGUGUUUCUACAUGAGGAUCACCCAUGUAGAAGGCUAUCCUG [LRO-Excl2-10] (puzzle: Exclusion 2)
- apparent KD of MS2 coat protein [1]: 0.0253 µM

Sequence: CAGUACUGAGGAUAUACAUGAGGAUCACCCAUGUGCCUCAGGUAGGAUACUACCAUUAGUAGAAGGCAGUACUG [Fiskers Ex 3 828 mod 18] (puzzle: Exclusion 3)
- apparent KD of MS2 coat protein [1]: 0.128 µM

Sequence: CAGUACUGAGGAUAUACAUGAGGAUCACCCAUGUGGGAGAUACUAGUGAGGUCGAUUAGUAGAAGGCAGUACUG [Mat X3R4 m21] (Eterna round: R97, puzzle: Exclusion 3)
- apparent KD of MS2 coat protein (input ligand: FMN 200 uM): 0.903 µM
- apparent KD of MS2 coat protein (input ligand: none): 0.184 µM

Sequence: CAGUACUGAGGAUAUACAUGAGGAUCACCCAUGUGGUCCAGCUAGGAAACUAGCAAAAGUAGAAGGCAGUACUG [salish99_ex3_r3_083] (puzzle: Exclusion 3)
- apparent KD of MS2 coat protein [2]: 0.0125 µM
- apparent KD of MS2 coat protein [1]: 0.0715 µM
- apparent KD of MS2 coat protein [3]: 0.217 µM

Sequence: CAGUACUGAGGAUAUACAUGAGGAUCACCCAUGUGUCUAAGGUAGGAUACUACCAUUAGUAGAAGGCAGUACUG [Fiskers Ex 3 828 mod 19] (puzzle: Exclusion 3)
- apparent KD of MS2 coat protein [1]: 0.0132 µM

Sequence: CAGUACUGAGGAUAUACAUGAGGAUCACCCAUGUGUUCCAGCUAGGAGACUAGCAAAUGUAGAAGGCAGUACUG [jl-ex3-4.02 salish99 mod] (Eterna round: R97, puzzle: Exclusion 3)
- apparent KD of MS2 coat protein (input ligand: FMN 200 uM): 0.615 µM
- apparent KD of MS2 coat protein (input ligand: none): 0.406 µM

Sequence: CAGUACUGAGGAUAUACAUGAGGAUCACCCAUGUGUUCCAGCUAGGAGACUAGCAAGUGUAGAAGGCAGUACUG [jl-ex3-4.01 salish99 mod] (Eterna round: R97, puzzle: Exclusion 3)
- apparent KD of MS2 coat protein (input ligand: FMN 200 uM): 0.293 µM
- apparent KD of MS2 coat protein (input ligand: none): 0.434 µM

Sequence: CAGUACUGAGGAUAUACAUGAGGAUCACCCAUGUGUUCCAGCUAGGAUACUAGCAAAUGUAGAAGGCAGUACUG [Mat - Exclusion 3 - Eli Mod - D8] (Eterna round: R97, puzzle: Exclusion 3)
- apparent KD of MS2 coat protein (input ligand: FMN 200 uM): 0.0629 µM
- apparent KD of MS2 coat protein (input ligand: none): 0.227 µM

Sequence: CAGUACUGAGGAUAUACAUGAGGAUCACCCAUGUGUUCCGGCUAGGAUACUAGCAAAGGAAGAAGGCAGUACUG [Mat - Exclusion 3 - Eli Mod - D23] (Eterna round: R97, puzzle: Exclusion 3)
- apparent KD of MS2 coat protein (input ligand: FMN 200 uM): 0.0227 µM
- apparent KD of MS2 coat protein (input ligand: none): 0.0171 µM

Sequence: CAUAAGUGAGGAUAUCCUGGCCCUAUGCGUUAGGCGCGCUAGGAGAAGGCACAUGAGGAUCACCCAUGUCUCUC [Eternabot (L1) Solution 21] (Eterna round: R97, puzzle: Exclusion 4)
- apparent KD of MS2 coat protein (input ligand: FMN 200 uM): 0.0766 µM
- apparent KD of MS2 coat protein (input ligand: none): 0.0297 µM

Sequence: CAUACACAUGAGGAUCACCCAUGUGAGGAUAUGAAUACGUUGUCCGUAGGCGACGUGAUCAGAAGGCGCUUGGU [Mat - Mod of JL D100] (puzzle: Exclusion 1)
- apparent KD of MS2 coat protein [1]: 0.044 µM

Sequence: CAUACUAAAGUCAGGAUAUGCGGUCGAAUACGGGUGUAGAAGGGACAUGAGGAUCACCCAUGUAGAUAGUAAAG [EX-4 Malc #18] (puzzle: Brourd's mod of Exclusion 4)
- apparent KD of MS2 coat protein [2]: 0.0931 µM
- apparent KD of MS2 coat protein [1]: 0.0902 µM
- apparent KD of MS2 coat protein [3]: 0.129 µM

Sequence: CAUACUGAAGUUAGGAUAUUCGAACGUAUACGGAUGGAGAAGGGACAUGAGGAUCACCCAUGUAGAUAGUAAAG [EX-4 Malc #11] (puzzle: Brourd's mod of Exclusion 4)
- apparent KD of MS2 coat protein [2]: 0.0231 µM
- apparent KD of MS2 coat protein [1]: 0.0215 µM
- apparent KD of MS2 coat protein [3]: 0.0231 µM

Sequence: CAUCCACAUGAGGAUCACCCAUGUCAGGAUAUUGUACAAACCCAAUCAUAUUGGGCGUCAAGAAGGGACAUUCU [EX1 B.5] (Eterna round: R97, puzzle: Exclusion 1)
- apparent KD of MS2 coat protein (input ligand: FMN 200 uM): 0.0228 µM
- apparent KD of MS2 coat protein (input ligand: none): 0.0124 µM

Sequence: CAUGAUUGGCGAGGAUAUUGAUCUAGUUGGCGACGAGAAGGCGCCUGUCACAUGAGGAUCACCCAUGUGAAUCUGGUGGAUGAG [Ex NG1 #88] (Eterna round: R96, puzzle: Exclusion NG 1)
- apparent KD of MS2 coat protein (input ligand: FMN 200 uM): 0.023 µM
- apparent KD of MS2 coat protein [4]: 0.0184 µM
- apparent KD of MS2 coat protein (input ligand: none): 0.0235 µM

Sequence: CAUGGAACGUAGGAUAUCUCGCAGCCCGACUGCAGAGAAGGACGUACAUGAGGAUCACCCAUGUAUGAUCCAAA [Vexeoren] (puzzle: Exclusion 6)
- apparent KD of MS2 coat protein [2]: 0.0292 µM
- apparent KD of MS2 coat protein [1]: 0.0181 µM
- apparent KD of MS2 coat protein [3]: 0.0233 µM

Sequence: CAUGGAUGUGAGCCGCAUUACAUGAGGAUCACCCAUGUCAACAAGCUUUUUGCUUAUCUUACGCGGCGGCAUCAAAA [Enisusti] (puzzle: Sensor v3, turn-off variant 1)
- apparent KD of MS2 coat protein [2]: 0.0134 µM
- apparent KD of MS2 coat protein [1]: 0.0118 µM
- apparent KD of MS2 coat protein [3]: 0.00939 µM

Sequence: CAUGGAUGUGAGCCGCAUUACAUGAGGAUCACCCAUGUCAACAAGCUUUUUGCUUGUCUUACGCGGCGACAUCAGAA [Tiquatge] (puzzle: Sensor v3, turn-off variant 1)
- apparent KD of MS2 coat protein [2]: 0.0117 µM
- apparent KD of MS2 coat protein [1]: 0.00833 µM
- apparent KD of MS2 coat protein [3]: 0.0101 µM

Sequence: CAUGUCCAACGAGGAUAUGGGAAAGGAAGUGUACCAGAAGGCGUACGGACAUGAGGAUCACCCAUGUCGCGCGGUGCGAUGUGG [MOD2 Nando EXNG 1.1] (Eterna round: R96, puzzle: Exclusion NG 1)
- apparent KD of MS2 coat protein (input ligand: FMN 200 uM): 0.112 µM
- apparent KD of MS2 coat protein [4]: 0.0391 µM
- apparent KD of MS2 coat protein (input ligand: none): 0.0989 µM

Sequence: CAUUACUACAAGCUUGGGAACAUGAGGAUCACCCAUGUUCGUCUUAUUGAUCUAGGUACGCUGACGUACCUAGAUCU [JL-sv1-2.24 Brourd mod] (puzzle: Sensor v3, turn-off variant 1)
- apparent KD of MS2 coat protein [2]: 0.0143 µM
- apparent KD of MS2 coat protein [1]: 0.0217 µM
- apparent KD of MS2 coat protein [3]: 0.0133 µM

Sequence: CAUUACUGCAAGCUAUGGGACAUGAGGAUCACCCAUGUUCGUCUUAUUGAUCUAGGUACGCUGACGUACCUAGAUCU [JL-sv1-2.21 Brourd mod] (puzzle: Sensor v3, turn-off variant 1)
- apparent KD of MS2 coat protein [2]: 0.0163 µM
- apparent KD of MS2 coat protein [1]: 0.0214 µM
- apparent KD of MS2 coat protein [3]: 0.015 µM

Sequence: CCAAGCUUAUUCAUUAACAACAUGAGGAUCACCCAUGUAUAGGCAAUUAUGUUUGGGCUCUUUAGUGCUCGUCUUAU [Sensor-V1 #23] (Eterna round: R97, puzzle: Sensor, turn-off variant 1)
- apparent KD of MS2 coat protein (input ligand: FMN 200 uM): 0.0161 µM
- apparent KD of MS2 coat protein (input ligand: none): 0.0155 µM

Sequence: CCAAGCUUAUUCAUUAACCACAUGAGGAUCACCCAUGUAUAGGCAAUUAUGACUGGGCCAUCUGGUGCUCGUCUUAU [Sensor-V1 #29] (Eterna round: R97, puzzle: Sensor, turn-off variant 1)
- apparent KD of MS2 coat protein (input ligand: FMN 200 uM): 0.0162 µM
- apparent KD of MS2 coat protein (input ligand: none): 0.0152 µM

Sequence: CCACGACAUGAGGAUCACCCAUGUGAGGAUAUGACCUGAAAAGCGUGAGCAGUUUGUAUCAGAAGGCGCGUAGG [salish99_ex1_r4_067] (Eterna round: R97, puzzle: Exclusion 1)
- apparent KD of MS2 coat protein (input ligand: FMN 200 uM): 0.0359 µM
- apparent KD of MS2 coat protein (input ligand: none): 0.0442 µM

Sequence: CCACUGUCAGGAUAUCGUGCAUACAACGAAAGUUCUAUGUGCGAGAAGGGACAUGAGGAUCACCCAUGUAAACG [Omei Ex4 A28] (Eterna round: R97, puzzle: Exclusion 4)
- apparent KD of MS2 coat protein (input ligand: FMN 200 uM): 0.582 µM
- apparent KD of MS2 coat protein (input ligand: none): 0.138 µM

Sequence: CCAGGGCACAAUUAAACGCCCUAACAUGAGGAUCACCCAUGUCAGGAUAUGUAGGCAAAGACCCUACAGAAGGGACAUGUCCUA [Xegeat] (Eterna round: R96, puzzle: Exclusion NG 3)
- apparent KD of MS2 coat protein (input ligand: FMN 200 uM): 0.217 µM
- apparent KD of MS2 coat protein [4]: 0.0761 µM
- apparent KD of MS2 coat protein (input ligand: none): 0.0499 µM

Sequence: CCAUAUAACUGAGGAUAUACUCACCACUAACAUGUAGAAGGCAGACAUGAGGAUCACCCAUGUGAUUUCUCAAUAUUAUACAUC [Prohibition 75 - Jieux - Exclusion NG 1] (Eterna round: R96, puzzle: Exclusion NG 1)
- apparent KD of MS2 coat protein [4]: 0.5 µM

Sequence: CCAUCGAGUGUGAGGAUAUGCUGUUCCUAAGAGCAGCAGAAGGCACAUGAGGAUCACCCAUGUGGAUACGGUGG [Mat - Exclusion 4 - JL Mod - D81] (puzzle: Brourd's mod of Exclusion 4)
- apparent KD of MS2 coat protein [2]: 0.172 µM
- apparent KD of MS2 coat protein [1]: 0.0292 µM
- apparent KD of MS2 coat protein [3]: 0.0311 µM

Sequence: CCAUGAUAAGGAUAUUGAAGGUUCGACAUGAGGAUCACCCAUGUUAUGUUGGAAAAGGGACAAGAAGGUAUGAAUU [salish99_ex5_r4_220] (Eterna round: R97, puzzle: Exclusion 5)
- apparent KD of MS2 coat protein (input ligand: FMN 200 uM): 0.0347 µM
- apparent KD of MS2 coat protein (input ligand: none): 0.0351 µM
